B1: P018.S.12.A.F03 (antibody, V domains shown)
VH: QSLEESGGRLVAPGTPLTLTCTVSGIDLSRYAMGWVRQAPGKGLEYIGIIDDNDITYFATWAKGRFTISKTSTTLGLKITSPTTEDTATYFCARTADYADYSFGLWGPGTLVTVSS
VL: DVVMTQTPTSVSEPVGGTVTIKCQASENIGNYLAWYQQRPGQRPKLLIYAASNLASGVPSRFKGSGSGTEYALTISDLESDDAATYYCQCTYDDSEYFVFGGGTEVVVK
notes: V regions on human Ig constant parts; also called AB134_79
B2: P018.S.12.A.D06 (antibody, V domains shown)
VH: QSVEESGGRLVTPGTPLTLTCTVSGFSLSSYDMSWVRQAPGKGLEWIGIIYVSGTTDYASWAKGRFTISKTSTTVDLKMTSLTTEDTATYFCARDIYVDEIGCFDLWGQGTLVTVSS
VL: DILMTQTPASVEVAVGGTVTIKCQASQNIRTYLAWYQQKPGQPPKLLIYRASTLESGVPSRFKGSGSGIEFSLTISDLESADAATYYCQNYDGGSSTGFGGGTEVVVK
notes: V regions on human Ig constant parts; also called AB134_71
B3: P018.S.11.A.A06 (antibody, V domains shown)
VH: QEQLVESGGGLVQPEGSLTLTCKASGFSFSSANCMHWVRQAPEKGLQWIGCVCIGDGTTYYASWVNGRFSISATSSTTVTIQMTSLTAADTATYFCARDLGLWGPGTLVTVSS
VL: AIVMTQTPSSKSVPVGDTVTINCQASESVDKYTQCSWYQQKPGQPPKLLIYYASTLASGVPSRFKGSGSGTQFTLTISDVVSDDAATYYCSGYKGGSADMIAFGGGTELVVT
notes: V regions on human Ig constant parts; also called AB134_23
B4: P018.S.12.A.D05 (antibody, V domains shown)
VH: QEQLKESGGGVVTPGGTLTLTCTASAFSLNHYNIQWVRQAPGKGLEWIGWILTDGTEYYANWAKGRFTISKTSTTVDLKIASPTTEDTATYFCAREGDWGVDSLWGPGTLVTVSS
VL: ALVMTQTPSPVSAAVGGTVTISCQSSQSVDNNDFLSWYQQKPGQPPKLLIYLASKLASGVPSRFSGSGSGTQFTLTISGVQSDDAATYYCKGLYFDSGWYAAFGGGTEVVVE
notes: V regions on human Ig constant parts; also called AB134_70
B5: P018.S.04.A.F06 (antibody, V domains shown)
VH: QSVEESGGRLVTPGTPLTLTCTVSGIDLSSSAMSWVRQAPGKGLEWIGIIGYNDFTYYANWAKGRFTISKTSTTVDLKMTSPTTEDTATYFCARGGSSSYSDYVFDPWGPGTLVTVSS
VL: AFEMTQTPSSVSEPVGGTVTIKCQASQSIYSNLAWYQQKPGQRPKLLIYDASDLASGVPSRFSGSGYGTEFTLTISDLESADAATYYCQSYYGISSYGVAFGGGTEVVVK
notes: V regions on human Ig constant parts; also called AB134_13
B6: P018.S.11.A.G03 (antibody, V domains shown)
VH: QSLEESGGRLVTPGTPLTLTCTASGFSLTNYAMNWVRQAPGKGLEWIGFINYDGNTYYANWAKGRFTISRTSTTVDLKITSPTTEDTATYFCARGGDGYTHIPDTFDPWGPGTLVTVSS
VL: AFEMTQTPSSVSVAVGGTVTIKCQASQSIYSYLSWYQQKPGQPPKLLIYYASTLASGVPSRFVGSGSGTQFTLTISGVESADAATYYCQQGYSYSNIDNVFGGGTEMVVK
notes: V regions on human Ig constant parts; also called AB134_43
B7: P018.S.11.A.D03 (antibody, V domains shown)
VH: QEQLKETGGGLVQPGGSLTLSCKASGFDFSSGYMSWVRQAPGKGLEWIGYIDPVFGSTYYASWVNGRFAISSHNAQNTLYLQLNSLTAADTATYFCARDLRAFYSGWGGINLWGPGTLVTVSS
VL: AAVLTQTPSPVSAAVGGTVTIKCQSSQIVVNNNFLSWYQQKPGQPPKLLIYDASNLASGVPDRFSGSGSGTQFTLTISGVQSDDAATYYCLGGYDDDAENAFGGGTEVVVQ
notes: V regions on human Ig constant parts; also called AB134_30
B8: P018.S.12.A.C01 (antibody, V domains shown)
VH: QEQLKESGGGLVTPGGTLTLTCTASGFTFSSHAMGWVRQAPGKGLEWIGKIYDDGTTFYANWAKGRFTISRTSTTVDLKMTSLTTEDTATYFCLRGYNSGFNFWGQGTLVTVSS
VL: AQVLTQTPASVSAAVGGTVTISCQSSESVYNNNFLAWYQQKPGQPPKLLIYLASTLASGVPSRFSGSGSGTEFTLTISDLDSDDAATYYCAGGYDDNVYGFGGGTEVVVK
notes: V regions on human Ig constant parts; also called AB134_61
B9: P018.S.02.A.H03 (antibody, V domains shown)
VH: QSLEESGGRLVTPGGSLTLTCTVSGIDLSSYGMGWVRQAPGKGLEWIGTISYGGSTFYANWVKGRFTISKTSTTVDLKVTSLTTEDAATYFCAREVPYWSLWGQGTLVTVSS
VL: AYDMTQTPASVAAAVGGTVTIKCQASQSIGSDLSWYQQKRGQPPKLLIYDASTLASGVPSRFKGSGSGTEFTLTISDVQSADAATVYCQQDYSYRNVDNTFGGGTEVVVK
notes: V regions on human Ig constant parts; also called AB134_3
B10: P018.S.11.A.C03 (antibody, V domains shown)
VH: QSVEESGGRLVTPGTPLTLTCKVSGFSLSTYDMIWVRQAPAKGLEYIGIIGGSGFTYYANWAKGRFTISKTSTTVDLKITSPTTEDTATYFCARNNYDMWGPGTLVTVSS
VL: DVVMTQTPASVSEPVGGTVTIKCQASQSISNELAWHQQKPGQRPNLLIYGASTLESGVPSRFKGSRSGTEYTLTISDLESDDAATYYCQCTYYGSSYVGGAFGGGTEVVVK
notes: V regions on human Ig constant parts; also called AB134_28
B11: P018.S.04.A.A06 (antibody, V domains shown)
VH: QSLEESGGRLVTPGTPLTLTCTVSGFSLHNYNIQWVRQAPGKGLEWIGWILTDGSPYCANWAKGRFTISKTSTTVDLKITSPTIEDTATYFCARMGDYNINGLWGPGTLVTVSS
VL: AQVLTQTPSSVSAAVGGTVTINCQSSQRIYNNDFLSWYQQKPGQPPKLLIYAASTLASGVPSRFKGSGSGTQFTLTISDLESDDAATYYCQGGYSSSGWYLPFGGGTEVVVK
notes: V regions on human Ig constant parts; also called AB134_5
B12: P018.S.12.A.B05 (antibody, V domains shown)
VH: QQQLVESGGGLVKPGASLTLTCKASGFFFSGSYYMCWVRQAPGKGLEWIACIYTGSDDDTNYASWAKGRFTISKTSSTTVTLQMTSLTAADTATYFCARRNYDTDWGGDLWGPGTLVTVSS
VL: AVVLTQTPASVEAAVGGTVTIKCQASQSIGSSLAWYQQKPGQRPKLLIYYASNLASGVSSRFKGSGSGTQFTLTISDLESADAATYYCQCTYTSSDYLDAFGGGTEVVVK
notes: V regions on human Ig constant parts; also called AB134_59
B13: P018.S.12.A.F05 (antibody, V domains shown)
VH: QSLEESGGGLVQPGGSLKLSCKASGIDFSSYGVSWVRQAPGKGLEWIAYTYPDYGSTDYASWVNGRFTISLDNAQNTVFLQMTSLTAADTATYFCASSSNGWGGGFYFDLWGPGTLVTVSS
VL: ALVMTQTPSPVSAAVGGTVTINCQASEDIYSNLAWFQQKPGQPPKLLIYGASTLASGVPSRFSGSGSGTEFTLTINDLKSDDAATYYCLGVYTYITTDPNAFGGGTEVVVK
notes: V regions on human Ig constant parts; also called AB134_81
B14: P018.S.11.A.C04 (antibody, V domains shown)
VH: QSVEESGGRLVTPGTPLTLTCTVSGFSLGSYPMIWVRQAPGKGLEWIGYIDPGRGTTLYASWARGLFTISKTSTTVDLAMTSPTAADTATYFCARSYPGDGAGDLWGQGTLVTVSS
VL: DVVMTQTPASVSEPVGGTVTIKCQASESISNYFSWYQQKPGQPPKLLIYGASTLESGVSSRFKGSGSGTDFTLTISDLESADAATYYCQCTYYGSGDVGGAFGGGTEVVVK
notes: V regions on human Ig constant parts; also called AB134_29

Tests used:
[1] = target: T1, CD134 protein (His-tagged, Sino Biological Inc. 10481-H08H) (human, UniProt P43489 29-216); assay: ELISA, coated His-tagged CD134; note: test concentration or dose not given here
T1 construct: bought protein coated on ELISA plates; also called OX40; TNFRSF4; not shown: His tag
T1 sequence (looked up): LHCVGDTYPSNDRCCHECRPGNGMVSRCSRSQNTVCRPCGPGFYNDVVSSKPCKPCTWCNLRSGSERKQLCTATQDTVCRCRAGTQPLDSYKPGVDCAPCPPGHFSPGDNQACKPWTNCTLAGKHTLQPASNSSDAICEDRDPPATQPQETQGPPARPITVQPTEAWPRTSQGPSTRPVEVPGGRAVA

[2] = target: T2, CD134 expressed on the cell surface of HT1080_OX40 cells (human, UniProt P43489 29-277); assay: HT1080_OX40 cells, imaging; note: test concentration or dose not given here
T2 construct: whole, on cells; species not restated for the HT1080 transfectant
T2 sequence (looked up): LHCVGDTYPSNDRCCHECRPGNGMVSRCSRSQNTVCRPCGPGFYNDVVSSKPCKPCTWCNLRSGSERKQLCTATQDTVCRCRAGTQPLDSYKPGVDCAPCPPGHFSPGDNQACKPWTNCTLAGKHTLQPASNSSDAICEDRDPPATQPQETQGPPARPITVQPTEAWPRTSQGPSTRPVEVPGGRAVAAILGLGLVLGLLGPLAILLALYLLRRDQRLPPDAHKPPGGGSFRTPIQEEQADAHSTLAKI

[3] = target: T2, CD134 expressed on the cell surface of …; assay: cell-based or functional assay
[4] = target: T2, CD134 expressed on the cell surface of …; assay: cell-based or functional assay; remark: listed apart in the source
Throughout, for Functional assay Cross-linked by F(ab′)2 fragment IL-8: test concentration or dose not given here.
Throughout, for Functional assay IL-8: test concentration or dose not given here.

Binder	ELISA [abs. corr.] [1] [abs. corr.]	Cellular binding assay [RFU] [2] [RFU]	Functional assay Cross-linked by F(ab′)2 fragment IL-8 [3] [abs. corr.]	Functional assay IL-8 [3] [abs. corr.]	EC 50 (IL-8 release, cross-linked) [4] [µg/mL]
B1	2.45	485	2.15	0.527	1.63
B2	0.865	180	2.17	0.832	2.77
B3	1.84	537	2.16	0.732	2.09
B4	2.13	451	2.15	-0.007	2.4
B5	2.36	402	2.21	2.07	0.44
B6	2.11	450	2.1	1.57	0.894
B7	1.99	482	1.86	2.24	0.176
B8	2.49	496	2.06	-0.026	0.431
B9	0.468	198	1.95	2.56	0.215
B10	1.53	507	2.19	0.586	0.217
B11	2.85	486	2.21	0.879	0.63
B12	2.1	536	2.15	0.96	0.102
B13	2.12	511	2.17	0.341	0.733
B14	1.96	406	2.19	0.253	0.785

From patent US20210253725A1 (BIONTECH, published 2021)
